B1: Metastasis-associated protein MTA3, residues 265 to 317; numbered along this chain, Q9BTC8 (parent)
chain: RDEMEEWSASEASLFEEALEKYGKDFNDIRQDFLPWKSLTSIIEYYYMWKTTD

± gives the uncertainty stated by the source.

The data set covers variants of B1. Put plainly: abundance fitness (aPCA) (normalised: wild type 0, dead -1); higher = more abundant; growth selection in yeast, the domain comes from the species named. Conditions: Homo sapiens.
For the variant RDEMEEWSAYEASLFEEALEKYGKDFNDIRQDFLPWKSLTSIIEYYYMWKTTD [S10Y], the abundance fitness was -0.158 ± 0.083. In the case of RDEMEEWSAIEASLFEEALEKYGKDFNDIRQDFLPWKSLTSIIEYYYMWKTTD [S10I] it was -0.462 ± 0.2; in that of RDEMEEWSANEASLFEEALEKYGKDFNDIRQDFLPWKSLTSIIEYYYMWKTTD [S10N], -0.005 ± 0.14; in that of RDEMEEWSASEASLFEEALEKYGKDFNDIRQDFLPHKSLTSIIEYYYMWKTTD [W36H], -0.239 ± 0.069. Turning to RDEMEEWSASEASLFEEALEKYGKDFNDIRQDFLPNKSLTSIIEYYYMWKTTD [W36N], the abundance fitness is -0.177 ± 0.1.

Take RDEMEEWSASEASLFEEALEKYGKDFNDIRQDFLPWKSLTSIMEYYYMWKTTD [I43M]: the abundance fitness is -0.01 ± 0.085. As for RDEMEEWSASEASLFEEALEKYGKDFNDIRQDFLPWKSLTSIKEYYYMWKTTD [I43K], the abundance fitness came to 0.268 ± 0.1. As to RDEMEEWSKSEASLFEEALEKYGKDFNDIRQDFLPWKSLTSIIEYYYMWKTTD [A9K], the abundance fitness is -0.505 ± 0.097. In the case of RDEMEEWSSSEASLFEEALEKYGKDFNDIRQDFLPWKSLTSIIEYYYMWKTTD [A9S] it was -0.331 ± 0.078. Under RDEMEEWSASEASLFEETLEKYGKDFNDIRQDFLPWKSLTSIIEYYYMWKTTD [A18T] stands -1 ± 0.17; under RDEMEEWSASEASLFEENLEKYGKDFNDIRQDFLPWKSLTSIIEYYYMWKTTD [A18N], -0.863 ± 0.24. Under RDEMEEWSASEASLFEEALGKYGKDFNDIRQDFLPWKSLTSIIEYYYMWKTTD [E20G] stands -0.321 ± 0.13. Turning to RDEMEEWSASEASLFEEALWKYGKDFNDIRQDFLPWKSLTSIIEYYYMWKTTD [E20W], the abundance fitness is -0.613 ± 0.17.

With RDEMEEWSASEASLFEEALHKYGKDFNDIRQDFLPWKSLTSIIEYYYMWKTTD [E20H], the abundance fitness is -0.499 ± 0.13. On to RDEDEEWSASEASLFEEALEKYGKDFNDIRQDFLPWKSLTSIIEYYYMWKTTD [M4D], for which the abundance fitness was -0.554 ± 0.21. As for RDECEEWSASEASLFEEALEKYGKDFNDIRQDFLPWKSLTSIIEYYYMWKTTD [M4C], the abundance fitness was -0.307 ± 0.15. In the case of RDEIEEWSASEASLFEEALEKYGKDFNDIRQDFLPWKSLTSIIEYYYMWKTTD [M4I] it was -0.211 ± 0.3; in that of RDETEEWSASEASLFEEALEKYGKDFNDIRQDFLPWKSLTSIIEYYYMWKTTD [M4T], -0.481 ± 0.18. Under RDEKEEWSASEASLFEEALEKYGKDFNDIRQDFLPWKSLTSIIEYYYMWKTTD [M4K] stands -0.647 ± 0.31; under RDEREEWSASEASLFEEALEKYGKDFNDIRQDFLPWKSLTSIIEYYYMWKTTD [M4R], -0.039 ± 0.15. Regarding RDEMEEWSASEASLFEEALEKYGKDFNDIRQDFLPWKSLDSIIEYYYMWKTTD [T40D], the abundance fitness was determined as 0.195 ± 0.1. Regarding RDEMEEWSASEASLFEEALEKYGKDFNDIRQDFLPWKSLMSIIEYYYMWKTTD [T40M], the abundance fitness is -0.435 ± 0.084. RDEMEEWSASEASLFEEALEKYGKDFNDIRQDFLPWKSLISIIEYYYMWKTTD [T40I]: the abundance fitness was -0.771 ± 0.27. Under RDEMEEWSASEASLFEEALEKYGKDFNDIRQDFLPWKSLTRIIEYYYMWKTTD [S41R] stands -0.868 ± 0.13; under RDEMEEWSASEASLFEEALEKYGKDFNDIRQDFLPWKSLTVIIEYYYMWKTTD [S41V], -0.837 ± 0.13. Under RDEMEEWSASEASLFEEALEKYGKDFNDIRQDFLPWKSLTMIIEYYYMWKTTD [S41M] stands -0.794 ± 0.21; under RDEMEEWSASEASLFEEALEKYGKDFNDIRQDFLPWKSLTSIIEYYYMCKTTD [W49C], 0.061 ± 0.11.

RDEMEEWSASEASLFEEALEKYGKDFNDIRQDFLPWKSLTSIIEYYYRWKTTD [M48R]: the abundance fitness amounted to 0.323 ± 0.068.

In the case of RDEMEEWSASEASLFEEALEKYGKDFNDIRQDFLPWKSLTSIIEYYYLWKTTD [M48L], the abundance fitness was -0.176 ± 0.15. For the variant RDEMEEWSASEASLFEEALEKYGKDFNDIRQDFLPWKSLTSIIEYYYDWKTTD [M48D], the abundance fitness is -0.619 ± 0.35. As for RDEMEEWSASEASLFEEALEKYGKSFNDIRQDFLPWKSLTSIIEYYYMWKTTD [D25S], the abundance fitness is 0.366 ± 0.086. Under RDEMEEWSASEASLFEEALEKYGKQFNDIRQDFLPWKSLTSIIEYYYMWKTTD [D25Q] stands 0.088 ± 0.095. In the case of RDEMEEWSASEASLFEEALEKYGKAFNDIRQDFLPWKSLTSIIEYYYMWKTTD [D25A], the abundance fitness came out at 0.556 ± 0.086. In the case of RDEMEEWSASEASLFEEALEKYGLDFNDIRQDFLPWKSLTSIIEYYYMWKTTD [K24L], the abundance fitness was -0.006 ± 0.076. RDEMEEWSASEASLFEEALEKYGVDFNDIRQDFLPWKSLTSIIEYYYMWKTTD [K24V]: the abundance fitness is -0.217 ± 0.095. In the case of RDEMEEWSASEASLFEEALEKYGRDFNDIRQDFLPWKSLTSIIEYYYMWKTTD [K24R] it was -0.151 ± 0.094; in that of RDEMEEWSASEASLFEEALEKYGWDFNDIRQDFLPWKSLTSIIEYYYMWKTTD [K24W], -0.935 ± 0.38; in that of RDEMEEWSASEASLFEEALEKYGGDFNDIRQDFLPWKSLTSIIEYYYMWKTTD [K24G], -0.208 ± 0.13.

As to RDEMEEWSASEASLFEEALEKYGKDFNDIRQDFLPWKSLTSIIEYYYMWCTTD [K50C], the abundance fitness is -0.279 ± 0.13. Under RDEMEEWSASEASLFEEALEKYGKDFNDIRQDFLPWKSLTSIIEYYYMWLTTD [K50L] stands -0.444 ± 0.074; under RDEMEEWSASEASLFEEALEKYGKDFNDIRQDFLPWKSLTSIIEYYYMWTTTD [K50T], -0.271 ± 0.08; under FDEMEEWSASEASLFEEALEKYGKDFNDIRQDFLPWKSLTSIIEYYYMWKTTD [R1F], 0.372 ± 0.15. Under CDEMEEWSASEASLFEEALEKYGKDFNDIRQDFLPWKSLTSIIEYYYMWKTTD [R1C] stands 0.057 ± 0.077. Under NDEMEEWSASEASLFEEALEKYGKDFNDIRQDFLPWKSLTSIIEYYYMWKTTD [R1N] stands 0.378 ± 0.14; under RDEMEEWSASEASLFAEALEKYGKDFNDIRQDFLPWKSLTSIIEYYYMWKTTD [E16A], -0.119 ± 0.11; under RDEMEEWSASEASLFPEALEKYGKDFNDIRQDFLPWKSLTSIIEYYYMWKTTD [E16P], -0.621 ± 0.096. For the variant RDEMEEWSASEASLFEEALEKYGKDFNDIRQDFLPWDSLTSIIEYYYMWKTTD [K37D], the abundance fitness is -0.707 ± 0.087. As for RDEMEEWSASEASLFEEALEKYGKDFNDIRQDFLPWYSLTSIIEYYYMWKTTD [K37Y], the abundance fitness was -0.806 ± 0.12. In the case of RDEMEEWVASEASLFEEALEKYGKDFNDIRQDFLPWKSLTSIIEYYYMWKTTD [S8V] it was -0.949 ± 0.15.

The values are drawn from the Human Domainome abundance scans (Beltran et al. 2025).
